Laboratory results reported in patent US20070071744A1 (published 2007).
Ends that are not written are not given here.

Tests used:
Experiment in all cases: PepSpot peptide array
[1] = target: T1, peptide 82 (human)
T1 peptide: Ac-ASFPIITVTAAHS
Procedure: (§1) The peptides were synthesized on a cellulose membrane in a stepwise manner resulting in a defined arrangement (peptide array) and are covalently bound to the cellulose membrane. Binding assays were performed directly on the peptide array. In general an antigen peptide array is incubated with blocking buffer for several hours to reduce non-specific binding of proteins or antibodies. It follows the incubation with a primary (antigen peptide-binding) antibody in blocking buffer and an incubation with a horseradish peroxidase (HRP)-labelled secondary antibody, which binds selectively the primary antibody. Alternatively a HRP-labelled primary antibody in blocking buffer can be used.
(§2) A short T(Tween)-TBS-buffer washing directly after the incubation of the antigen peptide array with the secondary protein or antibody or the HRP-labelled primary antibody followed by the first chemiluminescence experiment is made to get an first overview which antigen peptides do bind the primary antibody. Several buffer washing steps follow (T-TBS- and TBS-buffer) to reduce false positive binding (unspecific antibody binding to the cellulose membrane itself). After these washing steps the final chemiluminescence analysis is performed. The data were analysed with an imaging system showing the signal intensity (Light units, LU) as single measurements for each peptide. In order to evaluate non-specific binding of secondary antibodies, incubations using the secondary antibody have to be performed in the absence of the primary antibody as control incubation.

[2] = target: T2, peptide 20 (human)
T2 peptide: Ac-PLEKPVTLRCQGP
Procedure: as §1, §2

[3] = target: T3, peptide 79 (human)
T3 peptide: Ac-PERWYRASFPIIT
Procedure: as §1, §2

[4] = target: T4, peptide 112 (human)
T4 peptide: Ac-FSEATAELTVSFT
Procedure: as §1, §2

[5] = target: T5, peptide 1 (human)
T5 peptide: Ac-MSPSPTALFCLGL
Procedure: as §1, §2

[6] = target: T6, peptide 127 (human)
T6 peptide: Ac-ESDSPAGPARQYY
Procedure: as §1, §2

[7] = target: T7, peptide 116 (human)
T7 peptide: Ac-TVSFTNKVFTTET
Procedure: as §1, §2

[8] = target: T8, peptide 34 (human)
T8 peptide: Ac-YQDQAVLFIPAMK
Procedure: as §1, §2

[9] = target: T9, peptide 19 (human)
T9 peptide: Ac-LVPLEKPVTLRCQ
Procedure: as §1, §2

[10] = target: T10, peptide 61 (human)
T10 peptide: Ac-GPAVSSGGDVTLQ
Procedure: as §1, §2

[11] = target: T11, peptide 39 (human)
T11 peptide: Ac-AMKRSLAGRYRCS
Procedure: as §1, §2

[12] = target: T12, peptide 121 (human)
T12 peptide: Ac-TETSRSITTSPKE
Procedure: as §1, §2

[13] = target: T13, peptide 10 (human)
T13 peptide: Ac-PAQSGPLPKPSLQ
Procedure: as §1, §2

[14] = target: T14, peptide 89 (human)
T14 peptide: Ac-TYRCYSFSSRDPY
Procedure: as §1, §2

[15] = target: T15, peptide 11 (human)
T15 construct: also called QSGPLPKPSLQAL
T15 peptide: Ac-QSGPLPKPSLQAL
Procedure: as §1, §2

[16] = target: T16, peptide 38 (human)
T16 peptide: Ac-IPAMKRSLAGRYR
Procedure: as §1, §2

[17] = target: T17, peptide 111 (human)
T17 peptide: Ac-AEFSEATAELTVS
Procedure: as §1, §2

[18] = target: T18, peptide 78 (human)
T18 peptide: Ac-KNPERWYRASFPI
Procedure: as §1, §2

[19] = target: T19, peptide 32 (human)
T19 peptide: Ac-SSSRYQDQAVLFI
Procedure: as §1, §2

[20] = target: T20, peptide 48 (human)
T20 peptide: Ac-LWSLPSDQLELVA
Procedure: as §1, §2

[21] = target: T21, peptide 107 (human)
T21 peptide: Ac-PTEPPSSVAEFSE
Procedure: as §1, §2

[22] = target: T22, peptide 64 (human)
T22 peptide: Ac-GGDVTLQCQTRYG
Procedure: as §1, §2

[23] = target: T23, peptide 91 (human)
T23 peptide: Ac-YSFSSRDPYLWSA
Procedure: as §1, §2

[24] = target: T24, peptide 72 (human)
T24 peptide: Ac-FALYKEGDPAPYK
Procedure: as §1, §2

[25] = target: T25, peptide 31 (human)
T25 peptide: Ac-KLSSSRYQDQAVL
Procedure: as §1, §2

[26] = target: T26, peptide 101 (human)
T26 peptide: Ac-VVTGTSVTPSRLP
Procedure: as §1, §2

[27] = target: T27, peptide 126 (human)
T27 peptide: Ac-PKESDSPAGPARQ
Procedure: as §1, §2

[28] = target: T28, peptide 29 (human)
T28 peptide: Ac-YRLEKLSSSRYQD
Procedure: as §1, §2

[29] = target: T29, peptide 56 (human)
T29 peptide: Ac-FAKPSLSAQPGPA
Procedure: as §1, §2

[30] = target: T30, peptide 55 (human)
T30 peptide: Ac-GVFAKPSLSAQPG
Procedure: as §1, §2

[31] = target: T31, peptide 68 (human)
T31 peptide: Ac-QTRYGFDQFALYK
Procedure: as §1, §2

[32] = target: T32, peptide 99 (human)
T32 peptide: Ac-PLELVVTGTSVTP
Procedure: as §1, §2

[33] = target: T33, peptide 5 (human, cysteine pairing not given here)
T33 peptide: Ac-FCLGLCLGRVPAQ
Procedure: as §1, §2

[34] = target: T34, peptide 30 (human)
T34 peptide: Ac-LEKLSSSRYQDQA
Procedure: as §1, §2

[35] = target: T35, peptide 71 (human)
T35 peptide: Ac-DQFALYKEGDPAP
Procedure: as §1, §2

[36] = target: T36, peptide 16 (human)
T36 peptide: Ac-QALPSSLVPLEKP
Procedure: as §1, §2

[37] = target: T37, peptide 43 (human)
T37 peptide: Ac-RYRCSYQNGSLWS
Procedure: as §1, §2

[38] = target: T38, peptide 27 (human)
T38 peptide: Ac-GVDLYRLEKLSSS
Procedure: as §1, §2

[39] = target: T39, peptide 13 (human)
T39 peptide: Ac-LPKPSLQALPSSL
Procedure: as §1, §2

[40] = target: T40, peptide 98 (human)
T40 peptide: Ac-SDPLELVVTGTSV
Procedure: as §1, §2

[41] = target: T41, peptide 65 (human)
T41 peptide: Ac-DVTLQCQTRYGFD
Procedure: as §1, §2

- LU (Light Units) [1]: 149 LU
- LU (Light Units) [2]: 175 LU
- LU (Light Units) [3]: 119 LU
- LU (Light Units) [4]: 100 LU
- LU (Light Units) [5]: 149 LU
- LU (Light Units) [6]: 101 LU
- LU (Light Units) [7]: 224 LU
- LU (Light Units) [8]: 125 LU
- LU (Light Units) [9]: 157 LU
- LU (Light Units) [10]: 71 LU
- LU (Light Units) [11]: 134 LU
- LU (Light Units) [12]: 186 LU
- LU (Light Units) [13]: 1330 LU
- LU (Light Units) [14]: 46 LU
- LU (Light Units) [15]: 3540 LU
- signal to noise ratio [15]: ~20 ratio
- LU (Light Units) [16]: 1030 LU
- LU (Light Units) [17]: 136 LU
- LU (Light Units) [18]: 51 LU
- LU (Light Units) [19]: 319 LU
- LU (Light Units) [20]: 47 LU
- LU (Light Units) [21]: 71 LU
- LU (Light Units) [22]: 6 LU
- LU (Light Units) [23]: 67 LU
- LU (Light Units) [24]: 35 LU
- LU (Light Units) [25]: 211 LU
- LU (Light Units) [26]: 211 LU
- LU (Light Units) [27]: 119 LU
- LU (Light Units) [28]: 169 LU
- LU (Light Units) [29]: 759 LU
- LU (Light Units) [30]: 810 LU
- LU (Light Units) [31]: 84 LU
- LU (Light Units) [32]: 202 LU
- LU (Light Units) [33]: 26 LU
- LU (Light Units) [34]: 184 LU
- LU (Light Units) [35]: 29 LU
- LU (Light Units) [36]: 80 LU
- LU (Light Units) [37]: 64 LU
- LU (Light Units) [38]: 100 LU
- LU (Light Units) [39]: 2050 LU
- LU (Light Units) [40]: 141 LU
- LU (Light Units) [41]: 26 LU
B1: monoclonal antibody hGP 5C4 (antibody, V domains shown)
VH: EVKLQESGGGLVQPGRSLKLSCTASGFTFSDYFMSWVRQAPTRGLEWVASISSGGASAYWRDSVKGRFTISRDNAKSALYLQMDSLRSEDTATYFCARGELDFDYWGQGVMVAVSS
VL: ADPNSTLLSASVGDRVTLNCTASQNVYKNLAWYQQKLGEAPRLLLYSANSQTGIPSRFSGSGSGPDFTLTISSLQPEDVASYFCQQYYSGNTFGAGTKLELKR
notes: Rat hybridoma antibody (Lou/C rats), heavy chain gamma 2a, light chain kappa; also called ab 5C4; anti-GPVI mAb 5C4
